Measured values as given in patent publication EP4724480A2 (dated 2026).

Assays:
[1] = target: T1, E. coli FimH, wild type, on E. coli (BW25113) cells (E. coli, UniProt P08191 22-300); experiment: flow cytometry and immunofluorescence of rHMGB1 on E. coli BW25113
T1 construct: whole, on cells; also called WT FimH; ∆FimHWT

[2] = target: T2, ToH1 peptide of LptF (E. coli), SPEKPTV (E. coli); experiment: ELISA on ToH1 peptides (FIG.10A)
T2 construct: also called LptF ToH1 peptide

[3] = target: T3, ToH1 peptide of BmpC (Borrelia burgdorferi), SYERPDI (Borrelia burgdorferi); experiment: ELISA on ToH1 peptides (FIG.10A)
T3 construct: also called BmpC ToH1 peptide

[4] = target: T4, ToH1 peptide of HyR3 (Candida albicans), TFEPPVV (Candida albicans); experiment: ELISA on ToH1 peptides (FIG.10A)
T4 construct: also called HyR3 ToH1 peptide

[5] = target: T5, ToH1 peptide of Asa1 (Enterococcus faecalis), […] (Enterococcus faecalis); experiment: ELISA on ToH1 peptides (FIG.10A)
[6] = target: T6, ToH1 peptide of OmpA (Bacteroidales), SFELPTI (Bacteroidales); experiment: ELISA on ToH1 peptides (FIG.10A)
T6 construct: also called OmpA ToH1 peptide

[7] = target: T2, ToH1 peptide of LptF (E. coli), SPEKPTV; experiment: ELISA on ToH1 peptides (FIG.10B)
[8] = target: T3, ToH1 peptide of BmpC (Borrelia …); experiment: ELISA on ToH1 peptides (FIG.10B)
[9] = target: T4, ToH1 peptide of HyR3 (Candida …); experiment: ELISA on ToH1 peptides (FIG.10B)
[10] = target: T5, ToH1 peptide of Asa1 (Enterococcus …); experiment: ELISA on ToH1 peptides (FIG.10B)
[11] = target: T6, ToH1 peptide of OmpA (Bacteroidales), …; experiment: ELISA on ToH1 peptides (FIG.10B)

Measured: binding result

T1 sequence (P08191 22-300): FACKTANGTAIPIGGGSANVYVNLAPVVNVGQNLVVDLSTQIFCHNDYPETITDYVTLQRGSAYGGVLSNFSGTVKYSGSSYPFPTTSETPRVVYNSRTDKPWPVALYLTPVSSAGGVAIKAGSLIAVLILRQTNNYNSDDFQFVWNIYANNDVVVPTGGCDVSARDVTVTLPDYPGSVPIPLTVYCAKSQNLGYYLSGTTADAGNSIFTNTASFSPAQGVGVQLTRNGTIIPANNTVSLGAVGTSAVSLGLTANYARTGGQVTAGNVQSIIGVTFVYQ

B1: Recombinant human HMGB1 (rHMGB1) (ligand)
chain: MGKGDPKKPRGKMSSYAFFVQTCREEHKKKHPDASVNFSEFSKKCSERWKTMSAKEKGKFEDMAKADKARYEREMKTYIPPKGETKKKFKDPNAPKRPPSAFFLFCSEYRPKIKGEHPGLSIGDVAKKLGEMWNNTAADDKQPYEKKAAKLKEKYEKDIAAYRAKGKPDAAKKGVVKAEKSKKKKEEEEDEEDEEDEEEEEDEEDEDEEEDDDDE
notes: also called High mobility group box 1
binds: [1]

B2: G6 scFv (scFv)
scFv: QVQLQQSGPGLVKPSQTLSLTCAISGDSVSSNSAAWNWIRQSPSRGLEWLGRTYYRSKWYNDYAVSVKSRITINPDTSKNQFSLQLNSVTPEDTAVYYCARRSTWGTFDYWGQGTLVTVSSGGGGSGGGGSGGGGSGGGGASDIVMTQTPDSLAVSLGERATINCKSSQSVLYSSNNKNYLAWYQQKPGQPPKLLIYWASTRESGVPDRFSGSGSGTDFTLTISSLQAEDVAVYYCQQYYALPLTFGGGTKLEIKGSHHHHHH
notes: also called antibody G6
binds: [2] | [3] | [4] | [5] | [6]

B3: F5 scFv (scFv)
scFv: EVQLVQSGPEVKKPGASVKVSCKASGFIFSNYGIGWVRQAPGQGLEWLGWISGYNGQTNYAQTVQGRVTMTADTSTTTAYMDLRNLRSDDTAIYYCARQSIPYYMDVWGKGTMVTVSSGGGGSGGGGSGGGGSGGGGASDIVMTQSPLSSPVTLGQPASISCRSSQSLVHSNGNTYLSWLHQRPGQPPRLLIYRISNRLSGVPDRFSGSGAGTDFTLKISRVEAEDVGVYYCMQAKQFPVTFGQGTRLEIKGSHHHHHH
notes: also called antibody F5
binds: [7] | [8] | [9] | [10] | [11]
